According to patent publication US20190113512A1:
Values joined by “and” are separate entries in the source; they are usually repeats but may differ in a detail not shown here. Identical values can stand only once.

Target: fluorescent reagents used to detect binding activity

Binder | Quadrant % Q1 [%]
rcSso7d.Rv1656 (yeast-surface displayed) (designed binder) MATVKFTYQGEEKQVDISKIKWVRRYGQYIGFSYDEGGGAWGKGYVSEKDAPKELLQMLEKQ | 0.1

Target: fluorescent reagents used to detect binding activity
Remark: another data set of the same source

Binder | Secondary control signal
rcSso7d.Rv1656 (yeast-surface displayed) (designed binder) MATVKFTYQGEEKQVDISKIKWVRRYGQYIGFSYDEGGGAWGKGYVSEKDAPKELLQMLEKQ | 0.6% and 2.3% and 0%
rcSso7d.H4.3 (designed binder) MATVKFTYQGEEKQVDISKIKHVWRRGQNIYFRYDEGGGAWGAGAVSEKDAPKELLQMLEKQ | 0%
rcSso7d.H4.4 (designed binder) MATVKFTYQGEEKQVDISKIKSVKRNGQSIDFDYDEGGGAAGEGKVSEKDAPKELLQMLEKQ | 0%
rcSso7d.H4.5 (designed binder) MATVKFTYQGEEKQVDISKIKGVYRHGQSIWFRYDEGGGAWGWGIVSEKDAPKELLQMLEKQ | 0.6%
rcSso7d.H4.6 (designed binder) MATVKFTYQGEEKQVDISKIKSVHRYGQKIYFDYDEGGGAIGKGHVSEKDAPKELLQMLEKQ | 0%
rcSso7d.H4.7 (designed binder) MATVKFTYQGEEKQVDISKIKYVWRHGQHIAFRYDEGGGAHGWGSVSEKDAPKELLQMLEKQ | 0%
rcSso7d.H4.8 (designed binder) MATVKFTYQGEEKQVDISKIKDVWRHGQHIIFSYDEGGGAYGAGHVSEKDAPKELLQMLEKQ | 0%
rcSso7d.H4.9 (designed binder) MATVKFTYQGEEKQVDISKIKYVKRIGQYISFNYDEGGGAHGHGIVSEKDAPKELLQMLEKQ | 0%
rcSso7d.H6BA.1 (designed binder) MATVKFTYQGEEKQVDISKIKWVYRYGQYIIFGYDEGGGAKGNGYVSEKDAPKELLQMLEKQ | 1.5%
rcSso7d.H6BA.2 (designed binder) MATVKFTYQGEEKQVDISKIKWVYRWGQYIIFAYDEGGGAAGKGSVSEKDAPKELLQMLEKQ | 7.3%
rcSso7d.H6BA.3 (designed binder) MATVKFTYQGEEKQVDISKIKRVIRAGQSIIFSYDEGGGAIGHGWVSEKDAPKELLQMLEKQ | 1.7%
rcSso7d.H7.1 (designed binder) MATVKFTYQGEEKQVDISKIKYVYRWGQRIWFRYDEGGGAIGRGRVSEKDAPKELLQMLEKQ | 1.8%
rcSso7d.H1BA.1 (designed binder) MATVKFTYQGEEKQVDISKIKHVRRWGQYIIFAYDEGGGAYGGGWVSEKDAPKELLQMLEKQ | 6%
rcSso7d.H1BA.4 (designed binder) MATVKFTYQGEEKQVDISKIKNVYRWGQYIIFSYDEGGGAYGWGWVSEKDAPKELLQMLEKQ | 0%
rcSso7d.H1BA.5 (designed binder) MATVKFTYQGEEKQVDISKIKYVRRYGQYIGFIYDEGGGAWGKGYVSEKDAPKELLQMLEKQ | 0.9%
rcSso7d.H1BA.6 (designed binder) MATVKFTYQGEEKQVDISKIKDVWRWGQWIDFIYDEGGGADGWGRVSEKDAPKELLQMLEKQ | 0.5%
rcSso7d.H2BA.1 (designed binder) MATVKFTYQGEEKQVDISKIKRVIRYGQAIAFAYDEGGGARGYGWVSEKDAPKELLQMLEKQ | 3.2%
